{"source": "the nanobody polyreactivity screen of Harvey et al. (2022)"}
{"experiment": "yeast display, Sf9 membrane polyspecificity reagent, FACS + sequencing; frameworks hold sequencing errors", "in_short": "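Using colony PCR, genes from sorted yeast display clones were amplified, then sequenced on MiSeq at 2 × 250 and filtered by CDR length. The clones had been stained with 10% biotinylated, detergent-solubilized Sf9 membrane reagent for 1 hour at 4 °C and sorted by FACS into low and high (top ~1%) gates on anti-HA and streptavidin fluorescence. Polyreactivity labels come from the gate of origin.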"}
{"sequence": "QVQLVESGGGLVQAGGSLRLSCAASGFTFVYYAMGWYRQAPGKERALVASITQSGGSTRYADSVKGRFTISRDNAKNTVYLQMNSLKPEDTAVYYCNRRLYRRWGLDWQYYYWGQGTQVTVSS", "polyreactivity (PSR sort gate)": "high polyreactivity"}
{"sequence": "QVQLVESGGGLVQAGGSLRLSCAASGFTFVYYAMGWYRQAPGKERELVAAISRRGGNTNYADSVKGRFTISRDNEKNTVYLQMNSLKTEDTAVYYCNARLTGDRYYYYPMDYWGQGTQVTVST", "polyreactivity (PSR sort gate)": "high polyreactivity"}
{"sequence": "QVQLVESGGGLVQAGGSLRLSCAASGFTFVYYAMGWYRQAPGKERELVATISGHGGRTYYADSVKGRFTISRDNAKNTVYLQMNSLKPEDTAVYYCAALLYIRSVGYDYWGQGTQVTVSS", "polyreactivity (PSR sort gate)": "low polyreactivity"}
{"sequence": "QVQLVESGGGLVQAGGSLRLSCAASGFTFVYYTMGWSSQAPGKERELVAAISSSGGRTSYADSVKGRFTISRDNEKNTVYLQMNSLKPEDTAVYYCAARAYPTWRTYYYWGQGTQVTVSS", "polyreactivity (PSR sort gate)": "high polyreactivity"}
{"sequence": "QVQLVESGGGLVQAGGSLRLSCAASGFTFVYYVMGLYRQAPGKERELVAAINAGGGSTYYADSVKGRFTISRDNAKNTVYLQMNSLKPEDTAVYYCNARVRVRLGRNWSSYYYWGQGTQVTVST", "polyreactivity (PSR sort gate)": "high polyreactivity"}
{"sequence": "QVQLVESGGGLVQAGGSLRLSCAASGFTFVYYVMGWYRQAPGKEREKVAAINAGGGSTYYADSVKGRFTISRDNAKNTVYLQMHSLKPEDSAVYYCATRPRYYYFRYDYWGQGTQVTVSS", "polyreactivity (PSR sort gate)": "high polyreactivity"}
{"sequence": "QVQLVESGGGLVQAGGSLRLSCAASGFTFVYYVMGWYRQAPGKERELVAAINAGGGSTYYADSVKGRFTISRDNAKNTVYLQMNSLKPEDTAVYYCNARVRVRLGRNWSSYYYCGQGTQVTVSS", "polyreactivity (PSR sort gate)": "high polyreactivity"}
{"sequence": "QVQLVESGGGLVQAGGSLRLSCAASGFTFVYYVMGWYRQAPGKERELVAAINAGGGSTYYADSVKGRFTISRDNAKNTVYLQMNSLKPEDTAVYYCNARVRVRLGRNWSSYYYWGQGTQVTVSS", "polyreactivity (PSR sort gate)": "high polyreactivity"}
{"sequence": "QVQLVESGGGLVQAGGSLRLSCAASGFTFWAYAMGWYRHAPGKEMEVVAAISKTGGRTYYADSVKGRFTISRDNAKNNDYLQINSLKPEDTAVYYCAVDITGLYYPVDYWGQGTQVTVSS", "polyreactivity (PSR sort gate)": "high polyreactivity"}
{"sequence": "QVQLVESGGGLVQAGGSLRLSCAASGFTFWDYAMGWYRQAPGKERELVATISSDGSTNYADSVKGRFTISRDNAKNTVYLQMNSLKPEDTAVYYCAADGYLYFWYPYDYWGQGTQVTVSS", "polyreactivity (PSR sort gate)": "low polyreactivity"}
{"sequence": "QVQLVESGGGLVQAGGSLRLSCAASGFTFWDYAMGWYRQSPGKERELVAAISSRGTRTYYADSVKGRFTISRDNAKNTVYLQMNSLKPEDTAVYYCATAITDPDYIHNYWGQGTQVTVSS", "polyreactivity (PSR sort gate)": "high polyreactivity"}
{"sequence": "QVQLVESGGGLVQAGGSLRLSCAASGFTFWGYTMGWYRQAPGKERELVAAITSTGSTYYADSVKGRFTISRDNAKNTVYFLMNSLKPEDTAVYYCAATRGSSEYYYWGQGTQLTVSS", "polyreactivity (PSR sort gate)": "low polyreactivity"}
{"sequence": "QVQLVESGGGLVQAGGSLRLSCAASGFTFWIYAMGWYRQAPGKERELVAAISASGGSTRYADSVKVRFTISRDNAKNTVYLQMNSLKPEDTAVYYCAAYHGLRRGFDYWGPGTQVTVSS", "polyreactivity (PSR sort gate)": "high polyreactivity"}
{"sequence": "QVQLVESGGGLVQAGGSLRLSCAASGFTFWIYAMGWYRQAPGKERELVAVISRGGSTYYADSVKGRFTISRDNAKNTVYLQMNSLKPEDTAVYYCNAVGVRGYDYWGQGTQVTVSS", "polyreactivity (PSR sort gate)": "high polyreactivity"}
{"sequence": "QVQLVESGGGLVQAGGSLRLSCAASGFTFWIYAMGWYRQARGKEWELVAAISASGGYTRYADSVKGRFTISRDNAKNTVYLQMNSLKPEDTAVYYCAAYHGLRRGFDYWGEGTQVTVSS", "polyreactivity (PSR sort gate)": "high polyreactivity"}
{"sequence": "QVQLVESGGGLVQAGGSLRLSCAASGFTFWLYAMGWYRHAPAKEREFVAAISTSGGSTYADSVKGRFTISRDNAKYTVYLQMNSLKPEDTAVYYCNAGYVLYYDYHLFYWGQGTQVTVSS", "polyreactivity (PSR sort gate)": "low polyreactivity"}
{"sequence": "QVQLVESGGGLVQAGGSLRLSCAASGFTFWQYAMGWYRQAPGKERELVAAITWDGGSTYYADSVKGRFTISRDNAKNTVYLQMNSLKPEDTAVYYCAKLFGGTYYEYDYWGQGTQVTVSS", "polyreactivity (PSR sort gate)": "low polyreactivity"}
{"sequence": "QVQLVESGGGLVQAGGSLRLSCAASGFTFWRNAMGWYRQAPGKERELVAAISSGTGRTYYADSVKGRFTISRDNAKYTVYLQMNSLKPEDTAVYYCAKVNWRTSYGTSTRDYWGQGTQVTVSS", "polyreactivity (PSR sort gate)": "low polyreactivity"}
{"sequence": "QVQLVESGGGLVQAGGSLRLSCAASGFTFWRYAMGWSRQAPGKERELVAAISRTGGRTYYADSVKGRFTISRDNAKITVYLQMTSLKPEDTAVYYCAAVKYETYRYNYDYWGQGTQVTVSS", "polyreactivity (PSR sort gate)": "high polyreactivity"}
{"sequence": "QVQLVESGGGLVQAGGSLRLSCAASGFTFWRYTMGWYRQAPGKERELVAAISGGTTTYYADSVKGRFTISRDNAKNTVYLQMNSLKPEDTAVYYCAAYSQRARTYDYWGHGTQVTVSS", "polyreactivity (PSR sort gate)": "high polyreactivity"}
{"sequence": "QVQLVESGGGLVQAGGSLRLSCAASGFTFWTYAMGWYRQAPGKERELVAAIDSGGSTYYADSVKGRFTISRDNAKNTVFLQMNSLKPEDTAVYYCIAGPSVTSGYDYDYWGQGTQVTVSS", "polyreactivity (PSR sort gate)": "low polyreactivity"}
{"sequence": "QVQLVESGGGLVQAGGSLRLSCAASGFTFWTYAMGWYRQAPGKERELVAAIDSGGSTYYADSVKGRFTISRDNAKNTVYLQMNSLKPEDSAVYYCNAGPSVTSGYDYDYWGQGTQVTVSS", "polyreactivity (PSR sort gate)": "low polyreactivity"}
{"sequence": "QVQLVESGGGLVQAGGSLRLSCAASGFTFWWYAMGWYRQAPGKERELVAAISSGGSTNYADSVKGRFTISRDNAKNTVYLQMNSLKPEDTAVYYCNALGVGHSGFTKFSRYYYWGQGTQVTVSS", "polyreactivity (PSR sort gate)": "high polyreactivity"}
{"sequence": "QVQLVESGGGLVQAGGSLRLSCAASGFTFWYYAMGWYRQAPGKDRELVASISASGGRTNYADSVKGRFTISRDNAKNTVYLQMNSLKPDDTAVYYCNAASLIAAYGDYYWGQGTQVTVSS", "polyreactivity (PSR sort gate)": "high polyreactivity"}
{"sequence": "QVQLVESGGGLVQAGGSLRLSCAASGFTFWYYAMGWYRQAPGKERELVAAISWSGGSTSYADSVKGRFTISRDNAKNTVYLQMNSLKREDTAVYYCAASDYYYYSWRPGDTWYEYWGQGTQVSVSS", "polyreactivity (PSR sort gate)": "high polyreactivity"}
{"sequence": "QVQLVESGGGLVQAGGSLRLSCAASGFTFWYYAMGWYRQAPGKERELVAAITRGGNTNYADSVKGRFTISRDNAKNTVYLQMNSLKPEDTAVYYCAVRFSAPGYYYWGQGTQVTVSS", "polyreactivity (PSR sort gate)": "high polyreactivity"}
{"sequence": "QVQLVESGGGLVQAGGSLRLSCAASGFTFWYYAMGWYRQAPGKERELVATITSGDSTKYADSVKGRFTISRDNAKNTVYLQMNSLKPEDTAVYDCAAEKVLPFIGYDYWGQGTQVTVSS", "polyreactivity (PSR sort gate)": "low polyreactivity"}
{"sequence": "QVQLVESGGGLVQAGGSLRLSCAASGFTFYANAMGWYRQAPGKERELVAAISKSGGRTYYADSVKGRFTISRDNAKNTVYLQMNSLKPEDTAVYYCAAVGSVNYEADFDYWGQGTQVTVSS", "polyreactivity (PSR sort gate)": "high polyreactivity"}
{"sequence": "QVQLVESGGGLVQAGGSLRLSCAASGFTFYAYAMGWYRQAPGKERELVAAISKRGGITYYADSVKGRFTISRDNAKNTVYLQMNSLKPEDTAVYYCNADRRRRSGGFAGWHFQRNDYWGQGTLVTVSS", "polyreactivity (PSR sort gate)": "low polyreactivity"}
{"sequence": "QVQLVESGGGLVQAGGSLRLSCAASGFTFYAYAMGWYRQAPGKERELVAAISTSGTDTYYADSVKGRFTISRDNAKNTVYLQMNSLKPEDTAVYYCAAELYLYGFYEPIYPYSYDYWGHGTQVTVSS", "polyreactivity (PSR sort gate)": "low polyreactivity"}
{"sequence": "QVQLVESGGGLVQAGGSLRLSCAASGFTFYAYTMGWYRQAPGKERELVAAIRTGSSTYYADSVKGRFTISRDNAKITVYLQMNSLKPEDTAVYYCDAPRWRRPYRYDYWGQGTQVTVSS", "polyreactivity (PSR sort gate)": "high polyreactivity"}
{"sequence": "QVQLVESGGGLVQAGGSLRLSCAASGFTFYENAMGWYRQAPGKERELVATISYSGGTTYYADSVKGRFTISRDNAKNTVYLQMNSLKPEDTAVYYCNADYFYYGFPDDYWGQGTQVTVSS", "polyreactivity (PSR sort gate)": "low polyreactivity"}
{"sequence": "QVQLVESGGGLVQAGGSLRLSCAASGFTFYEYAMGWYRQAPGKERELVAAITQTGVRTYYADSVKGRFTISRDNAKNTVYLQMNSLKPEDTAVYYCAADDPRQRPRGHYDYWGQGTQVTVSS", "polyreactivity (PSR sort gate)": "low polyreactivity"}
{"sequence": "QVQLVESGGGLVQAGGSLRLSCAASGFTFYFYAKGWYTQSPGKERELVASISSSGGSTYADSVKGPFTISRDNAKNTVYLQMNSLKPEDTAVYYCAATEIFRFRYVAVGYDYWGQGTQVTVSS", "polyreactivity (PSR sort gate)": "low polyreactivity"}
{"sequence": "QVQLVESGGGLVQAGGSLRLSCAASGFTFYFYAMAWYRQAPGKERELVAAISSGGSTKYADSVKVRFTISRDNAKNTVYLQMKSLKPEDTAVYYCNRYYPGSGPLGYWGQGTQVTVSS", "polyreactivity (PSR sort gate)": "low polyreactivity"}
{"sequence": "QVQLVESGGGLVQAGGSLRLSCAASGFTFYGNAMGWYRQAPGKERELVAAISGRGGSTYYADSVKGRFTISRDNAKNTVYLQMNSLKPEVTAVYYCAIYVSWPLYYYWGQGTQVTVSS", "polyreactivity (PSR sort gate)": "low polyreactivity"}
{"sequence": "QVQLVESGGGLVQAGGSLRLSCAASGFTFYGNAMGWYRQAPGKERELVAAISGRGGSTYYADSVKGRFTISRDNAKNTVYLQMNSRKPEDTAVYYCNKRGPYRWYSAPYGYWGQGTQVTVSS", "polyreactivity (PSR sort gate)": "low polyreactivity"}
{"sequence": "QVQLVESGGGLVQAGGSLRLSCAASGFTFYGNAMGWYRQAPGKERELVAAISSGGSTNYADSVKGRFTISRDNAKNTVYLQMNSLKPEDTAVYYCAASYPGQVSFPYASIGFDYWGQGTQVTVSS", "polyreactivity (PSR sort gate)": "low polyreactivity"}
{"sequence": "QVQLVESGGGLVQAGGSLRLSCAASGFTFYGNAMGWYRQAPGKERELVAAISSSGGITYYADSVKGRFTISRDNAKNTVYLQMNSLKPEDTAVYYCAAVQGTPDYEYDSWGQGTQVTVSS", "polyreactivity (PSR sort gate)": "low polyreactivity"}
{"sequence": "QVQLVESGGGLVQAGGSLRLSCAASGFTFYGNAMGWYRQAPGKERELVSAISYNGGSTYYADSVKGRFTISRDNAKNTVYLQMNSLKPEDTAVYYCAAGYYWQYTSSSAQYAYDYWGQGTQVTVSS", "polyreactivity (PSR sort gate)": "low polyreactivity"}
{"sequence": "QVQLVESGGGLVQAGGSLRLSCAASGFTFYGNSMGWYRQATGKERELVAAITSGGSTYYADSVKGRFTISRDNAKNNVYLQMNSLKPEDTAVYYCAAVNGWRRVKRFDYWGQGTQVTVSS", "polyreactivity (PSR sort gate)": "high polyreactivity"}
{"sequence": "QVQLVESGGGLVQAGGSLRLSCAASGFTFYGYAMGWYIQAPGKERELVAAITGSGARTYYADSVKGRFTISRDNAKNTVYLQMNSLKPEDTAVYYCNKVGVTRVGYTYRVREYDYWGQGTQVTVSS", "polyreactivity (PSR sort gate)": "high polyreactivity"}
{"sequence": "QVQLVESGGGLVQAGGSLRLSCAASGFTFYGYAMGWYRQAPGKERELVAAISSSGGRTYYADSVKGRFTISRDNAKNTVYLQMNSLKPEDTAVYYCAGDYTSRDYYYWGQGTQVTVSS", "polyreactivity (PSR sort gate)": "high polyreactivity"}
